Experimental data as given in PMC7554688, “Blocking of the IL-33/ST2 Signaling Axis by a Single-Chain Antibody Variable Fragment (scFv) Specific to IL-33 with a Defined Epitope” (International Journal of Molecular Sciences, 2020).

T1: ST2-Fc fusion protein (ectodomain of ST2, residues 19-321, and Fc from human IgG) (UniProt Q01638 19-321)
T1 construct: Suppressor of tumorigenicity 2 (ST2) / interleukin 1 receptor-like 1 (IL1RL1), ectodomain, residues 19-321; Synthesised gene in the pSF vector; also called sST2; IL1RL1; source: Expi293F, transfected, purified from supernatant (protein A agarose)
T1 sequence (looked up): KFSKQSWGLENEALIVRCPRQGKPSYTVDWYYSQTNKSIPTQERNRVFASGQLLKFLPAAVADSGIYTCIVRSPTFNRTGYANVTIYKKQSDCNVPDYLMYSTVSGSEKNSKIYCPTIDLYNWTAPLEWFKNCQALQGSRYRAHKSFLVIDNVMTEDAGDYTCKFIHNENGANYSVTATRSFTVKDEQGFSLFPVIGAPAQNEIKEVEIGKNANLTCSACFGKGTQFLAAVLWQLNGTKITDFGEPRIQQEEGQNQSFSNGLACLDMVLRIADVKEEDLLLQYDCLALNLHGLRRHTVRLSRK


How the values were obtained:
[1] = target: T1, ST2-Fc fusion protein (ectodomain of …); assay: pull-down; 4 uM GST-IL-33 on Glutathione Sepharose 4B, then 4 uM ST2-Fc, then C2_2E12 (0.4, 4, 40, 400 uM), 30 min at 4 C each step; 50 mM Tris-HCl pH 7.5, 150 mM NaCl; immunoblot (anti-ST2, anti-GST, anti-His6), bands quantified with ImageJ; conditions: both partners purified
[2] = target: T2, GST-IL-33 (mature form of interleukin 33, residues 112-270) (human, UniProt O95760); assay: ELISA; E. coli cell lysates containing overexpressed His6-tagged scFvs against GST-IL-33; the text says ELISA, the legend 'kinetic analysis'; the methods tell of lysates only for BLI (BLItz; lysate scFv on Ni-NTA biosensors, GST-IL-33 at 2, 1, 0.5 and 0.25 uM, Kd = koff/kon); conditions: one partner purified
T2 construct: Interleukin-33, human, mature form / IL-1-like cytokine domain, residues 112-270; Synthesised gene in the parallel GST-2 vector; also called GST-IL-33 WT; GST-IL-33_(112)-270; source: E. coli BL21 (DE3), purified (Glutathione Sepharose 4B); not shown: GST, N-terminal, kept

[3] = target: T2, GST-IL-33 (mature form of interleukin …); assay: ELISA; GST-IL-33 coated on the plate; serial dilutions of purified scFv (about 8 ng/mL to 0.8 mg/mL), ambient temperature 1 h, PBST; anti-HA-HRP detection, OD450; repeated three times; conditions: both partners purified
[4] = target: T2, GST-IL-33 (mature form of interleukin …); assay: pull-down; 4 uM GST-IL-33 on Glutathione Sepharose 4B, then 4 uM ST2-Fc, then C2_2E12 (0.4, 4, 40, 400 uM), 30 min at 4 C each step; 50 mM Tris-HCl pH 7.5, 150 mM NaCl; immunoblot (anti-ST2, anti-GST, anti-His6), bands quantified with ImageJ; conditions: both partners purified

| Binder | Kd [2] | other results |
| --- | --- | --- |
| GST-IL-33 (mature form of interleukin 33, residues 112-270) (domain or fragment, human, UniProt O95760 112-270, looked up, Interleukin-33, human, mature form / IL-1-like cytokine domain, residues 112-270; Synthesised gene in the parallel GST-2 vector; also called GST-IL-33 WT; GST-IL-33_(112)-270; source: E. coli BL21 (DE3), purified (Glutathione Sepharose 4B); not shown: GST, N-terminal, kept) SITGISPITEYLASLSTYNDQSITFALEDESYEIYVEDLKKDEKKDKVLLSYYESQHPSNESGDGVDGKMLMVTLSPTKDFWLHANNKEHSVELHKCEKPLPDQAFFVLHNMHSNCVSFECKTDPGVFIGVKDNHLALIKVDSSENLCTENILFKLSET | – | binding result [1]: binds |
| C2_2E1 (scFv, V domains shown, selected from a synthetic human scFv library by phage display; also called anti-IL-33 scFv clone C2_2E1; source: E. coli BL21 (DE3), in cell lysate; purified (Ni-NTA, SEC)) VH: EVQLLESGGGLVQPGGSLRLSCAASGFTFSSYYMSWVRQAPGRGLEWVSAISPGSSNKYYADSVKGRFTISRDNSKNTLYLQMNSLRAEDTAVYYCARMTSSFDYWGQGTLVTVSS VL: QSVLTQPPSASGTPGQRVTISCSGSSSNIGNNDVSWYQQLPGTAPKLLIYSDSQRPSGVPDRFSGSKSGTSASLAISGLRSEDEADYYCGSWDYSLSAYVFGGGTKLTVL | 35 nM | – |
| C1_1E1 (scFv, V domains shown, selected from a synthetic human scFv library by phage display; also called anti-IL-33 scFv clone C1_1E1; source: E. coli BL21 (DE3), in cell lysate; purified (Ni-NTA, SEC)) VH: EVQLLESGGGLVQPGGSLRLSCAASGFTFSSYYMSWVRQAPGKGLEWVSAISPGSSNKYYADSVKGRFTISRDNSKNTLYLQMNSLRAEDTAVYYCAKLTSAFDYWGQGTLVTVSS VL: QSVLTQPPSASGTPGQRVTISCTGSSSNIGSNDVTWYQQLPGTAPKLLIYSDNKRPSGVPDRFSGSKSGTSASLAISGLRSEEEADYYCGAWDSSLSGYVFGGGTKLTVL | 48 nM | – |
| C2_2A10 (scFv, V domains shown, selected from a synthetic human scFv library by phage display; also called anti-IL-33 scFv clone C2_2A10; source: E. coli BL21 (DE3), in cell lysate; purified (Ni-NTA, SEC)) VH: EVQLLESGGGLVQPGGSLRLSCAASGFTFSSYYMSWVRQAPGKGLEWVSAISPGSSNKYYADSVKGRFTISRDNSKNTLYLQMNSLGAEDTAVYYCAKLLTGFDYWGQGTLVTVSS VL: QSVLTQPPSASGTPGQRVTISCSGSSSNIGNNAVSWYQQLPGTAPKLLIYDDNHRPSGVPDRFSGSKSGTSASLAISGLRSEDEADYYCGTWDSSLSAYVFGGGTKLTVL | 57 nM | – |
| C2_2E12 (scFv, V domains shown, selected from a synthetic human scFv library by phage display; Fab and IgG formats were made but no result is told for them; also called anti-IL-33 scFv clone C2_2E12; C2_2E12 antibody; source: E. coli BL21 (DE3), in cell lysate and purified (Ni-NTA, SEC); scFv also expressed in Expi293F, purified (Ni-NTA, SEC)) VH: EVQLLESGGGLVQPGGSLRLSCAASGFTFSSYYMSWVRQAPGKGLEWVSAISPGSSNKYYADSVKGRFTISRDNSKNTLYLQMNSLRAEDTAVYYCARLTLSFDYWGQGTPVTVSS VL: QSVLTQPPSASGTPGQRVTISCSGSSSNIGSNDVSWYQQLPGTAPKLLIYADSKRPSGVPDRFSGSKSGTSASLAISGLRSEDEADYYCASWDSSLSAYVFGGGTKLTVL | 28 nM | Kd [3]: 38 nM; IL-33:ST2 interaction left at 100-fold molar excess of C2_2E12 (ST2-Fc band relative to that with 0.4 uM C2_2E12) [4]: ~40% |
| C2_2H5 (scFv, V domains shown, selected from a synthetic human scFv library by phage display; also called anti-IL-33 scFv clone C2_2H5; source: E. coli BL21 (DE3), in cell lysate; purified (Ni-NTA, SEC)) VH: EVQLLESGGGLVQPGGSLRLSCAASGFTFSSYYMSWVRQAPGKGLEWVSAISPGSSNKYYADSVKGQFTISRDNSKNTLYLQMNSLRAEDTAVYYCAKLSQSFDYWGQGTLVTVSS VL: QSVLTQPPSASGTPGQRVTISCTGSSSNIGNNGISWYQQLPGTAPKLLIYDNSHRPSGVPDRFSGSKSGTSASLAISGLRSEDETDYYCASWDSSLSGYVFGGGTKLTVL | 31 nM | – |
| C2_1D5 (scFv, V domains shown, selected from a synthetic human scFv library by phage display; also called anti-IL-33 scFv clone C2_1D5; source: E. coli BL21 (DE3), in cell lysate; purified (Ni-NTA, SEC)) VH: EVQLLESGGGLVQPGGSLRLSCAASGFTFSSYYMSWVRQAPGKGLEWVSAISPGSSNKYYADSVKGRFTISRDNSKNTLYLQMNSLRAEDTAVYYCARLLSAFDYWGQGTLVTVSS VL: QSVLTQPPSASGTPGQRVTISCSGSSSNIGSNDVSWYQQLPGTAPKLLIYSDSNRPSGVPDRFSGSKSGTSASLAISGLRSEDEADYYCGAWDSSLSGYVFGGGTKLTVL | 36 nM | – |
